From patent US20260015399A1 (Boehringer Ingelheim, published 2026)
*1 amine or outer side, *2 acyl side, *3 side chain or, on linkers, in order; H or OH if unused. Side-chain parts run from the residue outwards. The star is where a group is joined. C18 diacid = O=C(O)CCCCCCCCCCCCCCCCC(=O)*; γGlu = O=C(O)[C@H](CCC(=O)[*:2])N[*:1]; Isovaleryl = CC(C)CC(=O)*; Ahx = NCCCCCC(=O)O

T1: human NPY2 receptor (human, UniProt P49146 1-381)
T1 construct: whole, on cells; also called hNPY2-R; hNPY2R
T1 sequence (looked up): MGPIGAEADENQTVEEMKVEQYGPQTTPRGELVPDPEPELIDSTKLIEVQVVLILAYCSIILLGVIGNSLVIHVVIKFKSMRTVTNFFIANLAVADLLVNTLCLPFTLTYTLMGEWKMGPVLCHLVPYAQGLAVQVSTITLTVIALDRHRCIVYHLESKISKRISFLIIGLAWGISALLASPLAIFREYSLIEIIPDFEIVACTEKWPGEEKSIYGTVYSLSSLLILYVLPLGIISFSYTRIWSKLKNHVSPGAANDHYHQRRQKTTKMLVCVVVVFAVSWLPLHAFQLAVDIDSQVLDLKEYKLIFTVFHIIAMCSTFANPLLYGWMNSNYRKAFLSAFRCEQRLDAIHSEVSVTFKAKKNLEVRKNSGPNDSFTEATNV


Each binder was assayed against T1, human NPY2 receptor (assay: RLB: displacement of 125I-PYY(1-36) from hNPY2R membranes).
Method: The filtration RLB assay was carried out in 96-well plates in a final volume of 100 μl per well. Freeze-dried test peptides were dissolved in 100% dimethyl sulfoxide (DMSO) to stock solutions of 1 mM and serial dilutions were performed in assay buffer (50 mM HEPES, 5 mM MgCl₂, 1 mM CaCl₂), pH 7.4) containing 0.2% ovalbumin. […] Next, 80 μL membranes (HTS066M, ChemiSCREEN™ Human Neuropeptide Y2 Receptor Membrane Preparation, CHEMICON) were added to each well to give a final protein concentration of 0.5 μg/well. The plates were sealed and incubated at room temperature for 2 hours in a plate shaker set at 400 rpm. The incubation was stopped by vacuum filtration onto 0.5% polyethylene amine (PEI) presoaked GF/C filters using a 96-well FilterMate™ harvester (Perkin Elmer) followed by four washes with 300 μl/well ice-cold wash buffer (50 mM HEPES, 500 mM NaCl, pH7.4). Filter plates were then dried for 60 min at room temperature and the bottom of the plates was sealed with backing tape UniFilter-96. Finally, 50 μl/well scintillation counter cocktail (Microscint20, Packard) was added and the radioactivity was counted in the Packard TopCount NXT scintillation counter. IC₅₀ values (the half maximal inhibitory concentration of the agonist) were calculated by nonlinear regression analysis of sigmoidal dose-response curves.

| Ki [nM] | Binder |
| --- | --- |
| 106 | Isovaleryl-APEK([Ahx-γGlu-C18 diacid])PEEDETPEELQRYYVSLRHYYNWLTRQRY-NH2 (SMILES CC(C)CC(=O)N[C@@H](C)C(=O)N1CCC[C@H]1C(=O)N[C@@H](CCC(=O)O)C(=O)N[C@@H](CCCCNC(=O)CCCCCNC(=O)CC[C@H](NC(=O)CCCCCCCCCCCCCCCCC(=O)O)C(=O)O)C(=O)N1CCC[C@H]1C(=O)N[C@@H](CCC(=O)O)C(=O)N[C@@H](CCC(=O)O)C(=O)N[C@@H](CC(=O)O)C(=O)N[C@@H](CCC(=O)O)C(=O)N[C@H](C(=O)N1CCC[C@H]1C(=O)N[C@@H](CCC(=O)O)C(=O)N[C@@H](CCC(=O)O)C(=O)N[C@@H](CC(C)C)C(=O)N[C@@H](CCC(N)=O)C(=O)N[C@@H](CCCNC(=N)N)C(=O)N[C@@H](Cc1ccc(O)cc1)C(=O)N[C@@H](Cc1ccc(O)cc1)C(=O)N[C@H](C(=O)N[C@@H](CO)C(=O)N[C@@H](CC(C)C)C(=O)N[C@@H](CCCNC(=N)N)C(=O)N[C@@H](Cc1c[nH]cn1)C(=O)N[C@@H](Cc1ccc(O)cc1)C(=O)N[C@@H](Cc1ccc(O)cc1)C(=O)N[C@@H](CC(N)=O)C(=O)N[C@@H](Cc1c[nH]c2ccccc12)C(=O)N[C@@H](CC(C)C)C(=O)N[C@H](C(=O)N[C@@H](CCCNC(=N)N)C(=O)N[C@@H](CCC(N)=O)C(=O)N[C@@H](CCCNC(=N)N)C(=O)N[C@@H](Cc1ccc(O)cc1)C(N)=O)[C@@H](C)O)C(C)C)[C@@H](C)O) [Compound 8] |
| 12.7 | Isovaleryl-APAK([Ahx-γGlu-C18 diacid])PEEDASPEELQRQYVSLRHYYNWLTRQRY-NH2 (SMILES CC(C)CC(=O)N[C@@H](C)C(=O)N1CCC[C@H]1C(=O)N[C@@H](C)C(=O)N[C@@H](CCCCNC(=O)CCCCCNC(=O)CC[C@H](NC(=O)CCCCCCCCCCCCCCCCC(=O)O)C(=O)O)C(=O)N1CCC[C@H]1C(=O)N[C@@H](CCC(=O)O)C(=O)N[C@@H](CCC(=O)O)C(=O)N[C@@H](CC(=O)O)C(=O)N[C@@H](C)C(=O)N[C@@H](CO)C(=O)N1CCC[C@H]1C(=O)N[C@@H](CCC(=O)O)C(=O)N[C@@H](CCC(=O)O)C(=O)N[C@@H](CC(C)C)C(=O)N[C@@H](CCC(N)=O)C(=O)N[C@@H](CCCNC(=N)N)C(=O)N[C@@H](CCC(N)=O)C(=O)N[C@@H](Cc1ccc(O)cc1)C(=O)N[C@H](C(=O)N[C@@H](CO)C(=O)N[C@@H](CC(C)C)C(=O)N[C@@H](CCCNC(=N)N)C(=O)N[C@@H](Cc1c[nH]cn1)C(=O)N[C@@H](Cc1ccc(O)cc1)C(=O)N[C@@H](Cc1ccc(O)cc1)C(=O)N[C@@H](CC(N)=O)C(=O)N[C@@H](Cc1c[nH]c2ccccc12)C(=O)N[C@@H](CC(C)C)C(=O)N[C@H](C(=O)N[C@@H](CCCNC(=N)N)C(=O)N[C@@H](CCC(N)=O)C(=O)N[C@@H](CCCNC(=N)N)C(=O)N[C@@H](Cc1ccc(O)cc1)C(N)=O)[C@@H](C)O)C(C)C) [Compound 5] |

More lines, now with the values behind:

| Binder | Ki [nM] |
| --- | --- |
| Isovaleryl-APEK([Ahx-γGlu-C18 diacid])PEEDATPEELQRYYVSLRHYYNWLTRQRY-NH2 (SMILES CC(C)CC(=O)N[C@@H](C)C(=O)N1CCC[C@H]1C(=O)N[C@@H](CCC(=O)O)C(=O)N[C@@H](CCCCNC(=O)CCCCCNC(=O)CC[C@H](NC(=O)CCCCCCCCCCCCCCCCC(=O)O)C(=O)O)C(=O)N1CCC[C@H]1C(=O)N[C@@H](CCC(=O)O)C(=O)N[C@@H](CCC(=O)O)C(=O)N[C@@H](CC(=O)O)C(=O)N[C@@H](C)C(=O)N[C@H](C(=O)N1CCC[C@H]1C(=O)N[C@@H](CCC(=O)O)C(=O)N[C@@H](CCC(=O)O)C(=O)N[C@@H](CC(C)C)C(=O)N[C@@H](CCC(N)=O)C(=O)N[C@@H](CCCNC(=N)N)C(=O)N[C@@H](Cc1ccc(O)cc1)C(=O)N[C@@H](Cc1ccc(O)cc1)C(=O)N[C@H](C(=O)N[C@@H](CO)C(=O)N[C@@H](CC(C)C)C(=O)N[C@@H](CCCNC(=N)N)C(=O)N[C@@H](Cc1c[nH]cn1)C(=O)N[C@@H](Cc1ccc(O)cc1)C(=O)N[C@@H](Cc1ccc(O)cc1)C(=O)N[C@@H](CC(N)=O)C(=O)N[C@@H](Cc1c[nH]c2ccccc12)C(=O)N[C@@H](CC(C)C)C(=O)N[C@H](C(=O)N[C@@H](CCCNC(=N)N)C(=O)N[C@@H](CCC(N)=O)C(=O)N[C@@H](CCCNC(=N)N)C(=O)N[C@@H](Cc1ccc(O)cc1)C(N)=O)[C@@H](C)O)C(C)C)[C@@H](C)O) [Compound 173] | 4.07 |
| Isovaleryl-APEK([Ahx-γGlu-C18 diacid])PEADAEPEELQRYYIALRHYYNWLTRQRY-NH2 (SMILES CC[C@H](C)[C@H](NC(=O)[C@H](Cc1ccc(O)cc1)NC(=O)[C@H](Cc1ccc(O)cc1)NC(=O)[C@H](CCCNC(=N)N)NC(=O)[C@H](CCC(N)=O)NC(=O)[C@H](CC(C)C)NC(=O)[C@H](CCC(=O)O)NC(=O)[C@H](CCC(=O)O)NC(=O)[C@@H]1CCCN1C(=O)[C@H](CCC(=O)O)NC(=O)[C@H](C)NC(=O)[C@H](CC(=O)O)NC(=O)[C@H](C)NC(=O)[C@H](CCC(=O)O)NC(=O)[C@@H]1CCCN1C(=O)[C@H](CCCCNC(=O)CCCCCNC(=O)CC[C@H](NC(=O)CCCCCCCCCCCCCCCCC(=O)O)C(=O)O)NC(=O)[C@H](CCC(=O)O)NC(=O)[C@@H]1CCCN1C(=O)[C@H](C)NC(=O)CC(C)C)C(=O)N[C@@H](C)C(=O)N[C@@H](CC(C)C)C(=O)N[C@@H](CCCNC(=N)N)C(=O)N[C@@H](Cc1c[nH]cn1)C(=O)N[C@@H](Cc1ccc(O)cc1)C(=O)N[C@@H](Cc1ccc(O)cc1)C(=O)N[C@@H](CC(N)=O)C(=O)N[C@@H](Cc1c[nH]c2ccccc12)C(=O)N[C@@H](CC(C)C)C(=O)N[C@H](C(=O)N[C@@H](CCCNC(=N)N)C(=O)N[C@@H](CCC(N)=O)C(=O)N[C@@H](CCCNC(=N)N)C(=O)N[C@@H](Cc1ccc(O)cc1)C(N)=O)[C@@H](C)O) [Compound 1] | 2.05 |
| Isovaleryl-APAK([Ahx-γGlu-C18 diacid])PEADAEPEELQRYYVALRHYYNWLTRQRY-NH2 (SMILES CC(C)CC(=O)N[C@@H](C)C(=O)N1CCC[C@H]1C(=O)N[C@@H](C)C(=O)N[C@@H](CCCCNC(=O)CCCCCNC(=O)CC[C@H](NC(=O)CCCCCCCCCCCCCCCCC(=O)O)C(=O)O)C(=O)N1CCC[C@H]1C(=O)N[C@@H](CCC(=O)O)C(=O)N[C@@H](C)C(=O)N[C@@H](CC(=O)O)C(=O)N[C@@H](C)C(=O)N[C@@H](CCC(=O)O)C(=O)N1CCC[C@H]1C(=O)N[C@@H](CCC(=O)O)C(=O)N[C@@H](CCC(=O)O)C(=O)N[C@@H](CC(C)C)C(=O)N[C@@H](CCC(N)=O)C(=O)N[C@@H](CCCNC(=N)N)C(=O)N[C@@H](Cc1ccc(O)cc1)C(=O)N[C@@H](Cc1ccc(O)cc1)C(=O)N[C@H](C(=O)N[C@@H](C)C(=O)N[C@@H](CC(C)C)C(=O)N[C@@H](CCCNC(=N)N)C(=O)N[C@@H](Cc1c[nH]cn1)C(=O)N[C@@H](Cc1ccc(O)cc1)C(=O)N[C@@H](Cc1ccc(O)cc1)C(=O)N[C@@H](CC(N)=O)C(=O)N[C@@H](Cc1c[nH]c2ccccc12)C(=O)N[C@@H](CC(C)C)C(=O)N[C@H](C(=O)N[C@@H](CCCNC(=N)N)C(=O)N[C@@H](CCC(N)=O)C(=O)N[C@@H](CCCNC(=N)N)C(=O)N[C@@H](Cc1ccc(O)cc1)C(N)=O)[C@@H](C)O)C(C)C) [Compound 3] | 1.57 |
| Isovaleryl-APEK([Ahx-γGlu-C18 diacid])PEEAAEPEELQRYYVSLRHYYNWLTRQRY-NH2 (SMILES CC(C)CC(=O)N[C@@H](C)C(=O)N1CCC[C@H]1C(=O)N[C@@H](CCC(=O)O)C(=O)N[C@@H](CCCCNC(=O)CCCCCNC(=O)CC[C@H](NC(=O)CCCCCCCCCCCCCCCCC(=O)O)C(=O)O)C(=O)N1CCC[C@H]1C(=O)N[C@@H](CCC(=O)O)C(=O)N[C@@H](CCC(=O)O)C(=O)N[C@@H](C)C(=O)N[C@@H](C)C(=O)N[C@@H](CCC(=O)O)C(=O)N1CCC[C@H]1C(=O)N[C@@H](CCC(=O)O)C(=O)N[C@@H](CCC(=O)O)C(=O)N[C@@H](CC(C)C)C(=O)N[C@@H](CCC(N)=O)C(=O)N[C@@H](CCCNC(=N)N)C(=O)N[C@@H](Cc1ccc(O)cc1)C(=O)N[C@@H](Cc1ccc(O)cc1)C(=O)N[C@H](C(=O)N[C@@H](CO)C(=O)N[C@@H](CC(C)C)C(=O)N[C@@H](CCCNC(=N)N)C(=O)N[C@@H](Cc1c[nH]cn1)C(=O)N[C@@H](Cc1ccc(O)cc1)C(=O)N[C@@H](Cc1ccc(O)cc1)C(=O)N[C@@H](CC(N)=O)C(=O)N[C@@H](Cc1c[nH]c2ccccc12)C(=O)N[C@@H](CC(C)C)C(=O)N[C@H](C(=O)N[C@@H](CCCNC(=N)N)C(=O)N[C@@H](CCC(N)=O)C(=O)N[C@@H](CCCNC(=N)N)C(=O)N[C@@H](Cc1ccc(O)cc1)C(N)=O)[C@@H](C)O)C(C)C) [Compound 4] | 4.65 |
